Results on one molecule are retold here after patent US20050234225A1.

The target of this assay is KDR-alkaline phosphatase (AP) soluble fusion protein (human) (UniProt P35968). The assay is described as follows: BIAcore SPR, KDR immobilized. (In SPR one partner is held on a chip, and binding of the other changes the refractive index at the surface.)
Sequence of KDR-alkaline phosphatase (AP) soluble fusion protein (human) (P35968 20-764): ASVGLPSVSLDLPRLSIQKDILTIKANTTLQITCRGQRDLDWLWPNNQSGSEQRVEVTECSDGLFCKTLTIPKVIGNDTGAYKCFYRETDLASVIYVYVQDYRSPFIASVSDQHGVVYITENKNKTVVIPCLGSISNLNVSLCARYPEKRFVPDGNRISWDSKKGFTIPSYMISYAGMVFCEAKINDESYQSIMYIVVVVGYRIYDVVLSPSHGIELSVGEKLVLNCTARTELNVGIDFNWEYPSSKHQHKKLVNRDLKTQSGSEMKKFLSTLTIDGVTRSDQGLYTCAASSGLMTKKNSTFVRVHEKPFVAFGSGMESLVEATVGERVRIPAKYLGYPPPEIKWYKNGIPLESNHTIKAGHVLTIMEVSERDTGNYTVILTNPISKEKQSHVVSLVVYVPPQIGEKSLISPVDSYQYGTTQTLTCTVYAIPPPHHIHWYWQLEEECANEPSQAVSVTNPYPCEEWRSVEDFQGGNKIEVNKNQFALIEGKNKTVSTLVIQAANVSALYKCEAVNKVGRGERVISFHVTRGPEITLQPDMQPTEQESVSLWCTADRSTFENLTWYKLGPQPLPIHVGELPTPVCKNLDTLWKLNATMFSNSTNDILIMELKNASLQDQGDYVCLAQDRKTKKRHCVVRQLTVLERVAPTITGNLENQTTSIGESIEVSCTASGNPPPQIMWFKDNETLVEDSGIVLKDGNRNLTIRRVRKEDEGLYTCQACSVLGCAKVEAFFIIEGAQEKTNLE

B1: p1C11 scFv (scFv, from another filing)
scFv: QVKLQQSGAELVGSGASVKLSCTTSGFNIKDFYMHWVKQRPEQGLEWIGWIDPENGDSDYAPKFQGKATMTADSSSNTAYLQLSSLTSEDTAVYYCNAYYGDYEGYWGQGTTVTVSSGGGGSGGGGSGGGGSDIELTQSPAIMSASPGEKVTITCSASSSVSYMHWFQQKPGTSPKLWIYSTSNLASGVPARFSGSGSGTSYSLTISRMEAEDAATYYCQQRSSYPFTFGSGTKLEIK
As a reminder, the Kd is the concentration at which binding is half-saturated. Low readings indicate higher affinity, high ones lower affinity. By koff is commonly meant a measure of how fast the partners let go of each other. Low readings indicate slow dissociation, high ones fast dissociation. One may read the kon as the second-order rate constant of association. High values mean faster complex formation, low ones slower complex formation. On to B1, for which the Kd was determined as 1.4 nM, the koff was determined as 0.0001 s⁻¹ and the association rate constant (kon) is 77000 M⁻¹ s⁻¹.
